Data taken from paper PMC8431788, “Characterization of Protocatechuate 4,5-Dioxygenase from Pseudarthrobacter phenanthrenivorans Sphe3 and In Situ Reaction Monitoring in the NMR Tube” (International Journal of Molecular Sciences, 2021).

Substrate: O=C(O)c1ccc(O)c(O)c1
Assay: spectrophotometric CHMS formation, nonlinear Michaelis-Menten fit
Type: biochemical, Pseudarthrobacter phenanthrenivorans
Settings: 100 mM glycine-NaOH pH 9.5, 20 °C, co-substrate O2, Fe(II)/L-ascorbate preincubation likely, not stated for the Km

B1: PcaA (PCA 4,5-dioxygenase) (Pseudarthrobacter phenanthrenivorans Sphe3) (protein)
chain: MTLDKPYNDVPGTTIFDADQARKGYNLNQFCMSLMKPENRERYLADRGAYLDEWPLNPVQRQAVLDIDLNTCIAEGGNIYFLAKIGATHGLSFQQMAGSMTGMSEAAYRDMMIGGGRRPEGNRLKDLDGWTPPEPGEKAETVRQDAPAQYTSALFTSHVPAIGAAMDLGKTEEPYWKKVFSGYEWTREWAKENLPDVVILVYNDHATAFDSSIIPTFVLGTGAEYPVADEGYGPRPVPDVKGYPELAAHIAQSVIQDDFDLTLVNEMVVDHGLTVPLSLVYGDVEEWPVRVIPLAVNVVQYPVPSGRRCYELGRALRRALDKWDGEPLNVQIWGTGGMSHQLQGPRAGLINEEWDNAFLDHLIADPVGLTEWQHMEYVDEAGSEGIELVDWLIARGAMDDQFGGESPEVNHRFYHVPASNTAVGHLVLTNQTD
notes: full-length single-subunit alpha-beta fusion from plasmid pASPHE302; 1302 bp amplicon NdeI/XhoI in pET29c(+), His-column purified from E. coli BL21(DE3); ~45 kDa on SDS-PAGE, predicted 48 kDa
  Km: 21 ± 1.6 µM
